From paper PMC3426546 come the findings set out here.

In the assay the target is ECTV-IL18BP expressed and secreted from mammalian cells, biotinylated (ectromelia virus). The experiment in a line: SPR. Background: SPR reads the build-up and loss of mass on a sensor chip optically.

Usually Kd stands for the equilibrium constant for the complex coming apart. A higher Kd goes with lower affinity. The term koff denotes the first-order rate constant of dissociation. Read a high koff as a short-lived complex. Broadly, the kon is a measure of how fast the partners come together. The substance IL18 D110A (ligand) gave a Kd of 0.2 nM, a koff of 3e-05 s⁻¹ and a kon of 260000 M⁻¹ s⁻¹.
